Test results as given in US20110113865A1, “USING CARDIAC TROPONIN FOR MONITORING ANTI-ANGIOGENESIS THERAPY” (priority 2008, published 2011).

Legend:
[1] = test system: acute coronary syndromes; settings: treated patients; Annals of Oncology 2007; cited from earlier work
[2] = Smith 2000; cited from earlier work
[3] = 48 hours at room temperature or at 4° Celsius; cited from earlier work
[4] = test system: troponin T and/or NT-proBNP; assay: Levels of troponin T and/or NT-proBNP before and during therapy in 27 patients; format: in vivo, human
Excerpt: Examples are shown herein below.

[5] = test system: cardiovascular system; settings: human, in vivo
Procedure: Three years later, advanced colorectal cancer is diagnosed necessitating a suitable cancer therapy. The left ventricular ejection fraction (LVEF) is determined by echocardiography (40%) indicating a minor systolic dysfunction. Moreover, the amounts of a troponin T (12 pg/ml) and NT-proBNP (510 pg/ml) are determined in a sample of the patient. The patient is subjected to a cardiac stress test showing that a region of the posterior myocardial wall has a dysfunctional contractility (reversible perfusion defects). Coronary angiography is carried out indicating 80% stenosis of the artery that supplies the region of dysfunctional contractility with blood. Two weeks after successful revascularization of the affected myocardial regions, troponin T (6 pg/ml) and NT-proBNP (180 pg/ml) are determined again. A therapy with VEGF-inhibitors is started; troponin T and NT-proBNP are measured monthly. During the therapy with VEGF-inhibitors the levels of these two biomarkers remain stable. Also, the therapy is effective indicated by a reduced tumor size as well as by reduced CEA levels (carcinoembryonic antigen). […] Examples are shown herein below.

[6] = test system: troponin T; settings: human, in vivo
[7] = test system: NT-proBNP; settings: human, in vivo
[8] = test system: metastatic colorectal cancer; settings: cited from earlier work

## CNC(=O)c1cc(Oc2ccc(NC(=O)Nc3ccc(Cl)c(C(F)(F)F)c3)cc2)ccn1 [sorafenib]
[1]
  patients with induced acute coronary syndromes: 2.9%

## BNP: Brain Natriuretic Peptide, active hormone, 32 amino acids
[2]
  in-vivo half-life: 0.333 h
[3]
  concentration loss on storage: at least 20%

## Bevacizumab: monoclonal antibody against the vascular endothelial growth factor (VEGF)
[4]; 27 patients, serum, before vs during therapy
  patients in whom the levels of the markers remained unchanged (no significant increase): more than 80%
[4]; patient 4208, day 13 vs day 57 after therapy start
  change of the measured markers (Troponin T and NT-proBNP): Significant increases
[5]
  adverse side effects on the cardiovascular system: no adverse side effects on the cardiovascular system
[6]
  change of troponin T during treatment: further increase of troponin T
[7]
  NT-proBNP level: 1916 pg/mL
[8]
  survival: significantly improves survival

B1: NT-proBNP: N-terminal pro peptide of proBNP, 76 amino acids (protein, UniProt P16860 27-102, looked up)
NT-proBNP: HPLGSPGSASDLETSGLQEQRNHLQGKLSELQVEQTSLEPLQESPRPTGVWKSREVATEGIRGHRKMVLYTLRAPR
modifications: NT-proBNP
notes: N-terminal pro peptide of proBNP, 76 amino acids
[2]
  in-vivo half-life: 2 h
